In patent US20030073236A1, “p193 proteins and nucleic acids, and uses thereof” (priority 1999, published 2003) one finds co-localization to the cytoplasm in co-transfected NIH-3T3 cells (immune cytologic analyses) data, which are given here for 1 substance.

The assay deals with p193myc (p193 protein harboring a C-terminal myc epitope tag, from CMV-p193myc) (mouse) (UniProt Q8VE73). In words: cell-based or functional assay.

As for “SV40 Large T Antigen (T-Ag) (from UniProt P03070 1-708)”, the co-localization to the cytoplasm in co-transfected NIH-3T3 cells (immune cytologic analyses) was determined as 63%.
